# From patent US20030148958A1 (PROCTER AND GAMBLE, published 2003)
# Ends that are not written are not given here.
# T1: corticotropin releasing factor 2 receptor
# T1 sequence (Q13324 whole entry, species assumed, looked up): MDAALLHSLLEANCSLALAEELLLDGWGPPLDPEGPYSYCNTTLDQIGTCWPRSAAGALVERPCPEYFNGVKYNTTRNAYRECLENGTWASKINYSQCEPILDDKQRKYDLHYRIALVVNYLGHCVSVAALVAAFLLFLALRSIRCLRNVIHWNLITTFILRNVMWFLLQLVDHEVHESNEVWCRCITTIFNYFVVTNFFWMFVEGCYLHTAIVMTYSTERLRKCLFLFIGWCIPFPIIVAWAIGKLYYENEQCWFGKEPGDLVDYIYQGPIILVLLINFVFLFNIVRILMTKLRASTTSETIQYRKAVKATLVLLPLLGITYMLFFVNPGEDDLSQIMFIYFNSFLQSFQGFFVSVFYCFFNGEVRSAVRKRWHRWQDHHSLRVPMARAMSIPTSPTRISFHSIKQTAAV
# Molecular target: corticotropin releasing factor 1 receptor
# Experiment: cell-based or functional assay
# For CRF1R Emax in this document: reference of the scale not given here.
# For CRF2R Emax in this document: reference of the scale not given here.
Binder,CRF1R EC50 [µM],CRF1R Emax [%]
IVLSLDVPIGLLQILLEMARAEQLAQQAHSNRKLMEII-NH2 [SEQ ID NO 164],> 0.1,26
SEEPPISLDLTFHLLREVLEMARAEQLAQQAHTNARILARV-NH2 [SEQ ID NO 161],> 0.1,77
DNPSLSIDLPFILLRTLLELARTQSQRERAEQNAIIFASV-NH2 [SEQ ID NO 181],0.154,100
ZGPPISIDLPFQLLRKMIEIEKQEKEKQQATTNRLLLARV (C-terminal amide) [SEQ ID NO 19],0.233,83
ZGPPISIDLPFVLLRKMIEIEKQEKEKQQAANNRLLLDTI (C-terminal amide) [SEQ ID NO 190],> 0.1,9
DNPSLSIDLPFYLLRTLLELARTQSQRERAEQNAIIFASV-NH2 [SEQ ID NO 183],0.415,57.5
DNPSLSIDLPFLLLRTLLELARTQSQRERAEQNAIIFASV-NH2 [SEQ ID NO 180],0.125,99.3
IVLSLDVPIGLLQILLEQARARAAREQATSNRKLMEII-NH2 [SEQ ID NO 163],> 0.1,13
DNPSLSIDLPLILLRTLLELARTQSQRERAEQNAIIFASV-NH2 [SEQ ID NO 175],1,34.8
DNPSLSIDLPLFLLRTLLELARTQSQRERAEQNAIIFASV-NH2 [SEQ ID NO 178],1,55.7
IVLSLDVPIGLLQILIEIEKQEKEKQQAANNARILARV-NH2 [SEQ ID NO 166],0.438,95
DNPSLSIDLPLLLLRTLLELARTQSQRERAEQNAIIFASV-NH2 [SEQ ID NO 174],1,29.1
DNPSLSIDLPLHLLRTLLELARTQSQRERAEQNAIIFASV-NH2 [SEQ ID NO 179],0.477,78.9
IVLSLDVPIGLLQEVLEMARAEQLAQQAHSNRKLMEII-NH2 [SEQ ID NO 165],> 0.1,19
ZGPPISIDLPLLLLRKMIEIEKQEKEKQQAANNRLLLDTI (C-terminal amide) [SEQ ID NO 188],0.163,96
ZGPPISIDLPIWLLRKMIEIEKQEKEKQQAANNRLLLDTI (C-terminal amide) [SEQ ID NO 192],0.562,99
ZGPPISIDLPWFLLRKMIEIEKQEKEKQQAANNRLLLDTI (C-terminal amide) [SEQ ID NO 187],0.0316,72
SEEPPISLDVPIGLLQEVLEMARAEQLAQQAHSNRKLMEII-NH2 [SEQ ID NO 162],> 0.1,11
IVLSLDVPIGLLQILLEQTKADQLAQQAHSNRKLLDIA-NH2 [SEQ ID NO 159],> 0.1,9
DNPSLSIDLPLQLLRTLLELARTQSQRERAEQNAIIFASV-NH2 [SEQ ID NO 176],1,26.9
DNPSLSIDLPLYLLRTLLELARTQSQRERAEQNAIIFASV-NH2 [SEQ ID NO 177],0.613,69.2
ZGPPISIDVPTYLLRILIEIEKQEKEKQQATTNARILARV (C-terminal amide) [SEQ ID NO 169],0.978,26
ZGPPISIDVPFQLLRILIEIEKQEKEKQQATTNARILARV (C-terminal amide) [SEQ ID NO 171],0.206,99
DNPSLSIDLPTYLLRTLLELARTQSQRERAEQNAIIFASV-NH2 [SEQ ID NO 173],1,6.05
IVLSLDVPIGLLQILIEIEKQEKEKQQAATTNARILARV-NH2 [SEQ ID NO 168],1,52
DNPSLSIDLPFQLLRTLLELARTQSQRERAEQNAIIFASV-NH2 [SEQ ID NO 182],0.409,89.7

# Other lines, results leading:
CRF1R EC50 [µM],CRF1R Emax [%],Binder
0.261,98,ZGPPISIDLPFQLLRKMIEIEKQEKEKQQATTNRLLLATV (C-terminal amide) [SEQ ID NO 17]
0.0622,57,ZGPPISIDLPFILLRKMIEIEKQEKEKQQAANNRLLLDTI (C-terminal amide) [SEQ ID NO 189]
1,68,ZGPPISIDVPFQLLRKMIEIEKQEKEKQQATTNARILARV (C-terminal amide) [SEQ ID NO 172]
0.106,100,ZGPPISIDLPFQLLRKMIEIEKQEKEKQQATTNRLLLDRV (C-terminal amide) [SEQ ID NO 18]
0.0637,65,ZGPPISIDLPFLLLRKMIEIEKQEKEKQQAANNRLLLDTI (C-terminal amide) [SEQ ID NO 191]
1,15,IVLSLDVPIGLLQILLEQEKQEKEKQQATTNARILARV-NH2 [SEQ ID NO 167]
0.358,95.8,DNPSLSIDLPFHLLRTLLELARTQSQRERAEQNAIIFASV-NH2 [SEQ ID NO 185]
0.323,100,ZGPPISIDLPHWLLRKMIEIEKQEKEKQQAANNRLLLDTI (C-terminal amide) [SEQ ID NO 186]
1,9,ZGPPISIDVPTYLLRKMIEIEKQEKEKQQATTNARILARV (C-terminal amide) [SEQ ID NO 170]
0.486,77.3,DNPSLSIDLPFFLLRTLLELARTQSQRERAEQNAIIFASV-NH2 [SEQ ID NO 184]
> 0.1,10,IVLSLDVPIGLLQTLLELARTQSQRERAEQNRIIFDSV-NH2 [SEQ ID NO 160]

# Molecular target: T1, corticotropin releasing factor 2 …
# Experiment: cell-based or functional assay
Binder,CRF2R EC50 [µM],CRF2R Emax [%]
IVLSLDVPIGLLQILLEMARAEQLAQQAHSNRKLMEII-NH2 [SEQ ID NO 164],0.00224,92
SEEPPISLDLTFHLLREVLEMARAEQLAQQAHTNARILARV-NH2 [SEQ ID NO 161],> 0.1,88
DNPSLSIDLPFILLRTLLELARTQSQRERAEQNAIIFASV-NH2 [SEQ ID NO 181],0.00522,97.8
ZGPPISIDLPFQLLRKMIEIEKQEKEKQQATTNRLLLARV (C-terminal amide) [SEQ ID NO 19],0.00742,75
ZGPPISIDLPFVLLRKMIEIEKQEKEKQQAANNRLLLDTI (C-terminal amide) [SEQ ID NO 190],0.0396,31
DNPSLSIDLPFYLLRTLLELARTQSQRERAEQNAIIFASV-NH2 [SEQ ID NO 183],0.00793,100
DNPSLSIDLPFLLLRTLLELARTQSQRERAEQNAIIFASV-NH2 [SEQ ID NO 180],0.00314,95.7
IVLSLDVPIGLLQILLEQARARAAREQATSNRKLMEII-NH2 [SEQ ID NO 163],0.00449,96
DNPSLSIDLPLILLRTLLELARTQSQRERAEQNAIIFASV-NH2 [SEQ ID NO 175],0.00542,92.2
DNPSLSIDLPLFLLRTLLELARTQSQRERAEQNAIIFASV-NH2 [SEQ ID NO 178],0.00517,96.5
IVLSLDVPIGLLQILIEIEKQEKEKQQAANNARILARV-NH2 [SEQ ID NO 166],0.0037,99
DNPSLSIDLPLLLLRTLLELARTQSQRERAEQNAIIFASV-NH2 [SEQ ID NO 174],0.00442,97.2
DNPSLSIDLPLHLLRTLLELARTQSQRERAEQNAIIFASV-NH2 [SEQ ID NO 179],0.0102,92.5
IVLSLDVPIGLLQEVLEMARAEQLAQQAHSNRKLMEII-NH2 [SEQ ID NO 165],> 0.1,75
ZGPPISIDLPLLLLRKMIEIEKQEKEKQQAANNRLLLDTI (C-terminal amide) [SEQ ID NO 188],0.0146,100
ZGPPISIDLPIWLLRKMIEIEKQEKEKQQAANNRLLLDTI (C-terminal amide) [SEQ ID NO 192],0.0668,97
ZGPPISIDLPWFLLRKMIEIEKQEKEKQQAANNRLLLDTI (C-terminal amide) [SEQ ID NO 187],0.0103,100
SEEPPISLDVPIGLLQEVLEMARAEQLAQQAHSNRKLMEII-NH2 [SEQ ID NO 162],> 0.1,7
IVLSLDVPIGLLQILLEQTKADQLAQQAHSNRKLLDIA-NH2 [SEQ ID NO 159],0.0908,62
DNPSLSIDLPLQLLRTLLELARTQSQRERAEQNAIIFASV-NH2 [SEQ ID NO 176],0.0126,90.2
DNPSLSIDLPLYLLRTLLELARTQSQRERAEQNAIIFASV-NH2 [SEQ ID NO 177],0.00563,97.7
ZGPPISIDVPTYLLRILIEIEKQEKEKQQATTNARILARV (C-terminal amide) [SEQ ID NO 169],0.0178,93
ZGPPISIDVPFQLLRILIEIEKQEKEKQQATTNARILARV (C-terminal amide) [SEQ ID NO 171],0.0176,100
DNPSLSIDLPTYLLRTLLELARTQSQRERAEQNAIIFASV-NH2 [SEQ ID NO 173],0.1,65.2
IVLSLDVPIGLLQILIEIEKQEKEKQQAATTNARILARV-NH2 [SEQ ID NO 168],0.0049,75
DNPSLSIDLPFQLLRTLLELARTQSQRERAEQNAIIFASV-NH2 [SEQ ID NO 182],0.00721,91.4

# Second part, the binder after the results:
CRF2R EC50 [µM],CRF2R Emax [%],Binder
0.0102,96,ZGPPISIDLPFQLLRKMIEIEKQEKEKQQATTNRLLLATV (C-terminal amide) [SEQ ID NO 17]
0.007,96,ZGPPISIDLPFILLRKMIEIEKQEKEKQQAANNRLLLDTI (C-terminal amide) [SEQ ID NO 189]
0.0135,100,ZGPPISIDVPFQLLRKMIEIEKQEKEKQQATTNARILARV (C-terminal amide) [SEQ ID NO 172]
0.00529,97,ZGPPISIDLPFQLLRKMIEIEKQEKEKQQATTNRLLLDRV (C-terminal amide) [SEQ ID NO 18]
0.0083,100,ZGPPISIDLPFLLLRKMIEIEKQEKEKQQAANNRLLLDTI (C-terminal amide) [SEQ ID NO 191]
0.013,100,IVLSLDVPIGLLQILLEQEKQEKEKQQATTNARILARV-NH2 [SEQ ID NO 167]
0.00898,100,DNPSLSIDLPFHLLRTLLELARTQSQRERAEQNAIIFASV-NH2 [SEQ ID NO 185]
0.0251,100,ZGPPISIDLPHWLLRKMIEIEKQEKEKQQAANNRLLLDTI (C-terminal amide) [SEQ ID NO 186]
0.075,83,ZGPPISIDVPTYLLRKMIEIEKQEKEKQQATTNARILARV (C-terminal amide) [SEQ ID NO 170]
0.00372,96.5,DNPSLSIDLPFFLLRTLLELARTQSQRERAEQNAIIFASV-NH2 [SEQ ID NO 184]
0.00915,87,IVLSLDVPIGLLQTLLELARTQSQRERAEQNRIIFDSV-NH2 [SEQ ID NO 160]
